Assay results taken from article PMC9561280.

Molecular target: T1, Fur (Pseudomonas aeruginosa PA14) (UniProt Q03456)
T1 sequence: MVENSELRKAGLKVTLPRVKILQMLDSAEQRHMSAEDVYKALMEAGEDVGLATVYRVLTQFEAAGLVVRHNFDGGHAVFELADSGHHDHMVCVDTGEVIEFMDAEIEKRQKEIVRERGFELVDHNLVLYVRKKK
Assay: EMSA
Details: 25 mM Tris-HCl pH 7.5, 150 mM NaCl, 20 ul, 4 C 30 min; 10% PAGE in 0.5x TBE; no metal stated

Question: How did the binding turn out when “CTGGTCGAGTCGATGATGGTGGCCGGGCGCTGAGGCCGGGTTTCCCTCTATAAAACGCCAGCGCTCGTCGCTGGCGTTTTCGTTTCCGCCTGTTCAATTGTCCGCCTCTATGGGGACCATGCTTGTCTTTTGCCAAGAAGAAAACAATAATCAATCTCATTATCGTCTGGTGAGGTTGCC (double strand) [PfagA (Ppa4471)]” was run?
Answer: binds
